According to patent publication US20230406885A1, “CYCLIC PEPTIDES FOR TRAPPING INTERLEUKIN-1 BETA” (MERCK SHARP & DOHME LLC, priority 2022, published 2023):
*1 amine or outer side, *2 acyl side, *3 side chain or, on linkers, in order; H or OH if unused. [ ]: non-standard residue; d: D form. F4bcpA = 3-[4-[(S)-2-amino-2-carboxyethyl]phenyl]bicyclo[1.1.1]pentane-1-carboxylic acid, O=C([C@H](Cc1ccc(C23CC(C(=O)[*:3])(C2)C3)cc1)N[*:1])[*:2]; 3AzaPhe4AcPip = (S)-3-(6-(4-acetylpiperazin-1-yl)pyridin-3-yl)-2-aminopropanoic acid, CC(=O)N1CCN(c2ccc(C[C@H](N[*:1])C(=O)[*:2])cn2)CC1; Pro(trans-4-NH2) = O=C([C@@H]1C[C@@H](N[*:3])CN1[*:1])[*:2]; Trp(βS-Me,4-F) = C[C@@H](c1c[nH]c2cccc(F)c12)[C@H](N)C(=O)O; Bip(4'-COOH) = N[C@@H](Cc1ccc(-c2ccc(C(=O)O)cc2)cc1)C(=O)O; hQ = L-homoglutamine, NC(=O)CCC[C@H](N[*:1])C(=O)[*:2]; 1Nal(3S-Me) = C[C@@H](c1cccc2ccccc12)[C@H](N)C(=O)O; Ala(indazol-1-yl) = N[C@@H](Cn1ncc2ccccc21)C(=O)O; Phe(4-COOH) = N[C@@H](Cc1ccc(C(=O)O)cc1)C(=O)O; Trp(7-Me) = Cc1cccc2c(C[C@H](N)C(=O)O)c[nH]c12; h3Pal(5-CN) = N#Cc1cncc(CC[C@H](N)C(=O)O)c1; hTyr = N[C@@H](CCc1ccc(O)cc1)C(=O)O; hCha = N[C@@H](CCC1CCCCC1)C(=O)O; tBuAla = CC(C)(C)C[C@H](N)C(=O)O; dNle = CCCC[C@@H](N)C(=O)O; dDab = NCC[C@@H](N)C(=O)O; dNva = CCC[C@@H](N)C(=O)O; Orn = NCCC[C@H](N)C(=O)O; dNMeA = CN[C@H](C)C(=O)O; Dap = NC[C@H](N)C(=O)O

The binders below were run against Recombinant human IL-1β (BioLegend 579404) (human, UniProt P01584 117-269) (assay: cell-based or functional assay).

Binder | MRC5 IC50 [nM]
cyclo([3AzaPhe4AcPip]W[Phe(4-COOH)]G[Pro(trans-4-NH2)][1Nal(3S-Me)]D[dNMeA]G[Bip(4'-COOH)]KL[dL][h3Pal(5-CN)]) (SMILES CC(=O)N1CCN(c2ccc(C[C@@H]3NC(=O)[C@H](CCc4cncc(C#N)c4)NC(=O)[C@@H](CC(C)C)NC(=O)[C@H](CC(C)C)NC(=O)[C@H](CCCCN)NC(=O)[C@H](Cc4ccc(-c5ccc(C(=O)O)cc5)cc4)NC(=O)CNC(=O)[C@@H](C)N(C)C(=O)[C@H](CC(=O)O)NC(=O)[C@H]([C@@H](C)c4cccc5ccccc45)NC(=O)[C@@H]4C[C@@H](N)CN4C(=O)CNC(=O)[C@H](Cc4ccc(C(=O)O)cc4)NC(=O)[C@H](Cc4c[nH]c5ccccc45)NC3=O)cn2)CC1) [SEQ ID NO: 178 (Example No. 178)] | 0.019
cyclo([3AzaPhe4AcPip]W[Phe(4-COOH)]G[Pro(trans-4-NH2)][1Nal(3S-Me)]D[dNMeA]G[Bip(4'-COOH)][Orn]L[dA][hCha]) (SMILES CC(=O)N1CCN(c2ccc(C[C@@H]3NC(=O)[C@H](CCC4CCCCC4)NC(=O)[C@@H](C)NC(=O)[C@H](CC(C)C)NC(=O)[C@H](CCCN)NC(=O)[C@H](Cc4ccc(-c5ccc(C(=O)O)cc5)cc4)NC(=O)CNC(=O)[C@@H](C)N(C)C(=O)[C@H](CC(=O)O)NC(=O)[C@H]([C@@H](C)c4cccc5ccccc45)NC(=O)[C@@H]4C[C@@H](N)CN4C(=O)CNC(=O)[C@H](Cc4ccc(C(=O)O)cc4)NC(=O)[C@H](Cc4c[nH]c5ccccc45)NC3=O)cn2)CC1) [SEQ ID NO: 182 (Example No. 182)] | 0.013
cyclo([3AzaPhe4AcPip]W[Phe(4-COOH)]G[Pro(trans-4-NH2)][1Nal(3S-Me)]D[dNMeA]G[Bip(4'-COOH)][hQ]L[dA][h3Pal(5-CN)]) (SMILES CC(=O)N1CCN(c2ccc(C[C@@H]3NC(=O)[C@H](CCc4cncc(C#N)c4)NC(=O)[C@@H](C)NC(=O)[C@H](CC(C)C)NC(=O)[C@H](CCCC(N)=O)NC(=O)[C@H](Cc4ccc(-c5ccc(C(=O)O)cc5)cc4)NC(=O)CNC(=O)[C@@H](C)N(C)C(=O)[C@H](CC(=O)O)NC(=O)[C@H]([C@@H](C)c4cccc5ccccc45)NC(=O)[C@@H]4C[C@@H](N)CN4C(=O)CNC(=O)[C@H](Cc4ccc(C(=O)O)cc4)NC(=O)[C@H](Cc4c[nH]c5ccccc45)NC3=O)cn2)CC1) [SEQ ID NO: 176 (Example No. 176)] | 0.017
cyclo([3AzaPhe4AcPip]W[Phe(4-COOH)]G[Pro(trans-4-NH2)][1Nal(3S-Me)]D[dNMeA]G[Bip(4'-COOH)][Dap]L[dA][hCha]) (SMILES CC(=O)N1CCN(c2ccc(C[C@@H]3NC(=O)[C@H](CCC4CCCCC4)NC(=O)[C@@H](C)NC(=O)[C@H](CC(C)C)NC(=O)[C@H](CN)NC(=O)[C@H](Cc4ccc(-c5ccc(C(=O)O)cc5)cc4)NC(=O)CNC(=O)[C@@H](C)N(C)C(=O)[C@H](CC(=O)O)NC(=O)[C@H]([C@@H](C)c4cccc5ccccc45)NC(=O)[C@@H]4C[C@@H](N)CN4C(=O)CNC(=O)[C@H](Cc4ccc(C(=O)O)cc4)NC(=O)[C@H](Cc4c[nH]c5ccccc45)NC3=O)cn2)CC1) [SEQ ID NO: 175 (Example No. 175)] | 0.016
cyclo([Bip(4'-COOH)][Trp7F][Phe(4-COOH)]G[Pro(trans-4-NH2)][Trp(βS-Me,4-F)]D[dNMeA]G[Bip(4'-COOH)]KL[dA][hTyr]) [SEQ ID NO: 185 (Example No. 185)] | 0.024
cyclo([3AzaPhe4AcPip]W[Phe(4-COOH)]G[Pro(trans-4-NH2)][1Nal(3S-Me)]D[dNMeA]G[Bip(4'-COOH)]KL[dNle][h3Pal(5-CN)]) (SMILES CCCC[C@H]1NC(=O)[C@H](CC(C)C)NC(=O)[C@H](CCCCN)NC(=O)[C@H](Cc2ccc(-c3ccc(C(=O)O)cc3)cc2)NC(=O)CNC(=O)[C@@H](C)N(C)C(=O)[C@H](CC(=O)O)NC(=O)[C@H]([C@@H](C)c2cccc3ccccc23)NC(=O)[C@@H]2C[C@@H](N)CN2C(=O)CNC(=O)[C@H](Cc2ccc(C(=O)O)cc2)NC(=O)[C@H](Cc2c[nH]c3ccccc23)NC(=O)[C@H](Cc2ccc(N3CCN(C(C)=O)CC3)nc2)NC(=O)[C@H](CCc2cncc(C#N)c2)NC1=O) [SEQ ID NO: 179 (Example No. 179)] | 0.017
cyclo([F4bcpA]W[Phe(4-COOH)]G[Pro(trans-4-NH2)][1Nal(3S-Me)]D[dNMeA]G[Bip(4'-COOH)][Ala(indazol-1-yl)]G[dDab][hCha]) (SMILES C[C@@H]1C(=O)NCC(=O)N[C@@H](Cc2ccc(-c3ccc(C(=O)O)cc3)cc2)C(=O)N[C@@H](Cn2ncc3ccccc32)C(=O)NCC(=O)N[C@H](CCN)C(=O)N[C@@H](CCC2CCCCC2)C(=O)N[C@@H](Cc2ccc(C34CC(C(=O)O)(C3)C4)cc2)C(=O)N[C@@H](Cc2c[nH]c3ccccc23)C(=O)N[C@@H](Cc2ccc(C(=O)O)cc2)C(=O)NCC(=O)N2C[C@H](N)C[C@H]2C(=O)N[C@@H]([C@@H](C)c2cccc3ccccc23)C(=O)N[C@@H](CC(=O)O)C(=O)N1C) [SEQ ID NO: 188 (Example No. 188)] | 0.016
cyclo([Bip(4'-COOH)][Trp(7-Me)][Phe(4-COOH)]G[Pro(trans-4-NH2)][Trp(βS-Me,4-F)]D[dNMeA]G[Bip(4'-COOH)]KL[dA][hTyr]) (SMILES Cc1cccc2c(C[C@@H]3NC(=O)[C@H](Cc4ccc(-c5ccc(C(=O)O)cc5)cc4)NC(=O)[C@H](CCc4ccc(O)cc4)NC(=O)[C@@H](C)NC(=O)[C@H](CC(C)C)NC(=O)[C@H](CCCCN)NC(=O)[C@H](Cc4ccc(-c5ccc(C(=O)O)cc5)cc4)NC(=O)CNC(=O)[C@@H](C)N(C)C(=O)[C@H](CC(=O)O)NC(=O)[C@H]([C@@H](C)c4c[nH]c5cccc(F)c45)NC(=O)[C@@H]4C[C@@H](N)CN4C(=O)CNC(=O)[C@H](Cc4ccc(C(=O)O)cc4)NC3=O)c[nH]c12) [SEQ ID NO: 186 (Example No. 186)] | 0.038
cyclo([3AzaPhe4AcPip]W[Phe(4-COOH)]G[Pro(trans-4-NH2)][1Nal(3S-Me)]D[dNMeA]G[Bip(4'-COOH)]QL[dA][h3Pal(5-CN)]) (SMILES CC(=O)N1CCN(c2ccc(C[C@@H]3NC(=O)[C@H](CCc4cncc(C#N)c4)NC(=O)[C@@H](C)NC(=O)[C@H](CC(C)C)NC(=O)[C@H](CCC(N)=O)NC(=O)[C@H](Cc4ccc(-c5ccc(C(=O)O)cc5)cc4)NC(=O)CNC(=O)[C@@H](C)N(C)C(=O)[C@H](CC(=O)O)NC(=O)[C@H]([C@@H](C)c4cccc5ccccc45)NC(=O)[C@@H]4C[C@@H](N)CN4C(=O)CNC(=O)[C@H](Cc4ccc(C(=O)O)cc4)NC(=O)[C@H](Cc4c[nH]c5ccccc45)NC3=O)cn2)CC1) [SEQ ID NO: 183 (Example No. 183)] | 0.013
cyclo([3AzaPhe4AcPip]W[Phe(4-COOH)]G[Pro(trans-4-NH2)][1Nal(3S-Me)]D[dNMeA]G[Bip(4'-COOH)]K[tBuAla][dA][h3Pal(5-CN)]) (SMILES CC(=O)N1CCN(c2ccc(C[C@@H]3NC(=O)[C@H](CCc4cncc(C#N)c4)NC(=O)[C@@H](C)NC(=O)[C@H](CC(C)(C)C)NC(=O)[C@H](CCCCN)NC(=O)[C@H](Cc4ccc(-c5ccc(C(=O)O)cc5)cc4)NC(=O)CNC(=O)[C@@H](C)N(C)C(=O)[C@H](CC(=O)O)NC(=O)[C@H]([C@@H](C)c4cccc5ccccc45)NC(=O)[C@@H]4C[C@@H](N)CN4C(=O)CNC(=O)[C@H](Cc4ccc(C(=O)O)cc4)NC(=O)[C@H](Cc4c[nH]c5ccccc45)NC3=O)cn2)CC1) [SEQ ID NO: 181 (Example No. 181)] | 0.015
cyclo([Bip(4'-COOH)][Trp6Cl][Phe(4-COOH)]G[Pro(trans-4-NH2)][Trp(βS-Me,4-F)]D[dNMeA]G[Bip(4'-COOH)]KL[dA][hTyr]) [SEQ ID NO: 184 (Example No. 184)] | 0.018
cyclo([3AzaPhe4AcPip]W[Phe(4-COOH)]G[Pro(trans-4-NH2)][1Nal(3S-Me)]D[dNMeA]G[Bip(4'-COOH)]KL[dA][hCha]) (SMILES CC(=O)N1CCN(c2ccc(C[C@@H]3NC(=O)[C@H](CCC4CCCCC4)NC(=O)[C@@H](C)NC(=O)[C@H](CC(C)C)NC(=O)[C@H](CCCCN)NC(=O)[C@H](Cc4ccc(-c5ccc(C(=O)O)cc5)cc4)NC(=O)CNC(=O)[C@@H](C)N(C)C(=O)[C@H](CC(=O)O)NC(=O)[C@H]([C@@H](C)c4cccc5ccccc45)NC(=O)[C@@H]4C[C@@H](N)CN4C(=O)CNC(=O)[C@H](Cc4ccc(C(=O)O)cc4)NC(=O)[C@H](Cc4c[nH]c5ccccc45)NC3=O)cn2)CC1) [SEQ ID NO: 177 (Example No. 177)] | 0.013
cyclo([Bip(4'-COOH)]W[Phe(4-COOH)]G[Pro(trans-4-NH2)][Trp(βS-Me,4-F)]D[dNMeA]G[Bip(4'-COOH)]KL[dK](Ac)[hTyr]) (SMILES CC(=O)NCCCC[C@H]1NC(=O)[C@H](CC(C)C)NC(=O)[C@H](CCCCN)NC(=O)[C@H](Cc2ccc(-c3ccc(C(=O)O)cc3)cc2)NC(=O)CNC(=O)[C@@H](C)N(C)C(=O)[C@H](CC(=O)O)NC(=O)[C@H]([C@@H](C)c2c[nH]c3cccc(F)c23)NC(=O)[C@@H]2C[C@@H](N)CN2C(=O)CNC(=O)[C@H](Cc2ccc(C(=O)O)cc2)NC(=O)[C@H](Cc2c[nH]c3ccccc23)NC(=O)[C@H](Cc2ccc(-c3ccc(C(=O)O)cc3)cc2)NC(=O)[C@H](CCc2ccc(O)cc2)NC1=O) [SEQ ID NO: 187 (Example No. 187)] | 0.009
cyclo([3AzaPhe4AcPip]W[Phe(4-COOH)]G[Pro(trans-4-NH2)][1Nal(3S-Me)]D[dNMeA]G[Bip(4'-COOH)]KL[dNva][h3Pal(5-CN)]) (SMILES CCC[C@H]1NC(=O)[C@H](CC(C)C)NC(=O)[C@H](CCCCN)NC(=O)[C@H](Cc2ccc(-c3ccc(C(=O)O)cc3)cc2)NC(=O)CNC(=O)[C@@H](C)N(C)C(=O)[C@H](CC(=O)O)NC(=O)[C@H]([C@@H](C)c2cccc3ccccc23)NC(=O)[C@@H]2C[C@@H](N)CN2C(=O)CNC(=O)[C@H](Cc2ccc(C(=O)O)cc2)NC(=O)[C@H](Cc2c[nH]c3ccccc23)NC(=O)[C@H](Cc2ccc(N3CCN(C(C)=O)CC3)nc2)NC(=O)[C@H](CCc2cncc(C#N)c2)NC1=O) [SEQ ID NO: 180 (Example No. 180)] | 0.021
